The target of this assay is SARS-CoV-2 spike protein (FL-GCN4-Avi-His, biotinylated) (SARS-CoV-2, Wuhan-Hu-1, UniProt P0DTC2, stabilised, biotin on the Avi tag). The assay can be described thus: BLI. In general terms: In BLI a coated tip is dipped into the sample, and binding shifts an interference pattern.

B1: CV27 IgG (antibody, V domains shown)
VH: QVQLVESGGGVVQPGRSLRLSCAASGFTFSSYAMHWVRQAPGKGLEWVALISYDGSNKYYADSVKGRFTISRDNSKNTLYLQMNSLRAEDTAVYYCARSFGGSYYYGMDVWGQGTTVTVSS
VL: QSALTQPASVSGSPGQSITISCTGTSSDVGGYNYVSWYQQHPGKAPKLMIYDVSNRPSGVSNRFSGSKSGNTASLTISGLQAEDEADYYCSSYTSSSTPYVFGTGTKVTVL
Take B1: the binding result is given as “binds”.

B2: CV27 FAb (Fab, V domains shown)
VH: QVQLVESGGGVVQPGRSLRLSCAASGFTFSSYAMHWVRQAPGKGLEWVALISYDGSNKYYADSVKGRFTISRDNSKNTLYLQMNSLRAEDTAVYYCARSFGGSYYYGMDVWGQGTTVTVSS
VL: QSALTQPASVSGSPGQSITISCTGTSSDVGGYNYVSWYQQHPGKAPKLMIYDVSNRPSGVSNRFSGSKSGNTASLTISGLQAEDEADYYCSSYTSSSTPYVFGTGTKVTVL
Turning to B2, the binding result is on record as “binds”.

The values above are taken from doi:10.1101/2022.01.24.477625 (bioRxiv, 2022).
